Experimental data: patent publication US20100260763A1 (DOMANTIS, published 2010)
Substitutions are numbered along the chain they refer to. One block for each binder: values may come before it.

What was measured:
[1] = target: the molecule itself; test: analytical ultracentrifugation, sedimentation equilibrium; monomer/dimer self-association
[2] = target: T1, human TNFR1, soluble recombinant protein (human, UniProt P19438 22-211, limits assumed, biotinylated in the BIAcore assays (coupling via primary amines)); test: BIAcore 3000, dAb over biotinylated human TNFR1 (1400 RU) on SA chip, 1:1 fit, 25 C, mean of 3 experiments
T1 construct: also called biotinylated TNFR1; human recombinant E. coli-expressed human TNFR1
T1 sequence (looked up): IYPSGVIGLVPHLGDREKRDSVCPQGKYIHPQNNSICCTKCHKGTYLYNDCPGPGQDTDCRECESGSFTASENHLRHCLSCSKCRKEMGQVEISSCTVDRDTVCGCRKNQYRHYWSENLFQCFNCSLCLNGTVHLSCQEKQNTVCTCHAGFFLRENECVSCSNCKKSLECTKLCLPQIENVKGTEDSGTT

TNFR1-FC fusion [3] = target: T2, TNFR1-FC fusion (human, UniProt P19438 30-211, limits assumed); test: TNFR-1 receptor binding assay (RBA): inhibition of the binding of TNF-alpha to TNFR1 by the dAb; T0 sample
T2 construct: not shown: Fc part, captured by goat anti-human IgG; not described further
T2 sequence (looked up): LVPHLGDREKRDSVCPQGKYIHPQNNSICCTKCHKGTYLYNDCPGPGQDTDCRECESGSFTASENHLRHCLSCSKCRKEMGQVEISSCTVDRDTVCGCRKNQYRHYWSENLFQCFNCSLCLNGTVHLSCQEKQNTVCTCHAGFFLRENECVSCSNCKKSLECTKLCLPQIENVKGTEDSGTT

TNFR1-FC fusion [4] = target: T2, TNFR1-FC fusion; test: TNFR-1 receptor binding assay (RBA): inhibition of the binding of TNF-alpha to TNFR1 by the dAb; sample after 14 days at 50 C in Britton-Robinson buffer, concentration assumed to be 1 mg/ml
[5] = target: the molecule itself; test: analytical ultracentrifugation, sedimentation velocity; monomer/dimer self-association
TNFR1-FC fusion [6] = target: T2, TNFR1-FC fusion; test: TNFR1 receptor binding assay: TNFR1-Fc on beads, TNF-alpha 10 ng/ml, ABI 8200; average of 3 experiments
TNFR1 on MRC-5 cells = target: T3, TNFR1 on MRC-5 cells (UniProt P19438 30-455, limits assumed); test: cell-based or functional assay
T3 sequence (looked up): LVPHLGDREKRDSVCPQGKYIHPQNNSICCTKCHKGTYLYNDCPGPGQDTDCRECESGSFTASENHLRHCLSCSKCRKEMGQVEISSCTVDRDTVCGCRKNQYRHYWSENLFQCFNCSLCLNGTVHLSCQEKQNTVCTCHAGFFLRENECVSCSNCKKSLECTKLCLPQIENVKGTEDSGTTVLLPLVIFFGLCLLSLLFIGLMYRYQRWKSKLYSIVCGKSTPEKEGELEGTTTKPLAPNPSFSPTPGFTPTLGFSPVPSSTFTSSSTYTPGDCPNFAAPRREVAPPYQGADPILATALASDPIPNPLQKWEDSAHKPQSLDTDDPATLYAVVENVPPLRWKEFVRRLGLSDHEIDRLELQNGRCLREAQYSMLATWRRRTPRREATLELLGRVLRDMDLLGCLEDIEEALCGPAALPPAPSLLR

[7] = target: the molecule itself; test: analytical ultracentrifugation, sedimentation equilibrium; self-association
TNFR1-FC fusion [8] = target: T2, TNFR1-FC fusion; test: human TNFR1 receptor binding assay; dAb blocks binding of TNF-alpha (10 ng/ml) to bead-captured TNFR1-Fc; four replicates
[9] = target: the molecule itself; test: analytical ultracentrifugation, sedimentation equilibrium; monomer/dimer self-association; self-association (monomer to dimer) of the dAb by AUC sedimentation equilibrium, 0.5 mg/ml to 5 mg/ml
recombinant human VEGF [10] = target: T4, recombinant human VEGF (human, UniProt P15692-4 27-191, limits assumed, biotinylated in the selections, phage ELISA and BIAcore screening); test: BIAcore kinetics
T4 construct: also called hVEGF; VEGFA
T4 sequence (P15692 other isoform, or with tags, fused parts or gaps limits assumed): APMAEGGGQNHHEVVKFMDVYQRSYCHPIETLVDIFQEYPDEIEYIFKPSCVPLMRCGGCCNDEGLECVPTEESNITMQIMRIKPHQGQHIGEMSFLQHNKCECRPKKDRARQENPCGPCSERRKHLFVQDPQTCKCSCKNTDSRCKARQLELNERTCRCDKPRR

recombinant human VEGF [11] = target: T4, recombinant human VEGF; test: receptor binding assay
recombinant human VEGF [12] = target: T4, recombinant human VEGF; test: RBA assay; taken as the Fc fusion of the row
IL-1R1 = target: T5, IL-1R1 (UniProt P14778 18-332, limits assumed); test: Receptor Binding Assay, inhibition of IL-1 binding to IL-R1
T5 construct: also called IL-R1
T5 sequence (looked up): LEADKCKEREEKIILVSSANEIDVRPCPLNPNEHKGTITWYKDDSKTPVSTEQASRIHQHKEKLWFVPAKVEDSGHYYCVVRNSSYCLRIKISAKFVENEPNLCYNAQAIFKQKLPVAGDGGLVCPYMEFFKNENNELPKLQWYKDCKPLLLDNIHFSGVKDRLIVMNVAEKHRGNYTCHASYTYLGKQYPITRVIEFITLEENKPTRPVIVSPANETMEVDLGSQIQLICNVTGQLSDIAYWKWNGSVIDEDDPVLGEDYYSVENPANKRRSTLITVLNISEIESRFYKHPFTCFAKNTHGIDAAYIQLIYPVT

Kd [2]: 0.55 nM
IC50 (read off the curve) (TNFR1-FC fusion [3]): ~0.1 nM
IC50 (read off the curve) (TNFR1-FC fusion [4]): ~0.1 nM
EC50 (TNFR1-FC fusion [6]): 0.11 nM
B1: DOM1h-131-202 (other)
VH: EVQLLESGGGLVQPGGSLRLSCAASGFTFAHETMVWVRQAPGKGLEWVSHIPPDGQDPFYADSVKGRFTISRDNSKNTLYLQMNSLRAEDTAVYYCALLPKRGPWFDYWGQGTLVTVSS
notes: human VH dAb against TNFR1; also called GSK1922567A
Kd [1]: 1300 nM
Kd [5]: 1000 nM

ND50 nM, MRC-5 cell-based assay (230307CE) (TNFR1 on MRC-5 cells): 1.89 nM
B2: DOM1h-131-204 (other)
VH: B1 VH with L5S, K101N

IC50 (read off the curve) (TNFR1-FC fusion [8]): ~0.2 nM
Kd [2]: 1.07 nM
ND50 nM, MRC-5 cell-based assay (230307CE) (TNFR1 on MRC-5 cells): 1.89 nM
EC50 (TNFR1-FC fusion [6]): 0.19 nM
B3: DOM1h-131-511 (other)
VH: B1 VH with D54V
notes: human VH domain antibody (dAb) against TNFR1; also called GSK1995056A
binding result [7]: binds

ND50 nM, MRC-5 cell-based assay (230307CE) (TNFR1 on MRC-5 cells): 2.28 nM
B4: DOM1h-131-203 (other)
VH: B1 VH with L5W, F106I

IC50 (read off the curve) (TNFR1-FC fusion [8]): ~0.07 nM
Kd [2]: 0.47 nM
ND50 nM, MRC-5 cell-based assay (230307CE) (TNFR1 on MRC-5 cells): 0.71 nM
EC50 (TNFR1-FC fusion [6]): 0.07 nM
B5: DOM1h-131-206 (other)
VH: B1 VH with Y95H
notes: human VH dAb against TNFR1; also called GSK1995057A
Kd [9]: 360000 nM

Kd (recombinant human VEGF [10]): 23.6 nM
EC50 (recombinant human VEGF [11]): 10.2 nM
B6: DOM15-10 (other)
VL: DIQMTQSPSSLSASVGDRVTITCRASQWIGPELSWYQQKPGKAPKLLIYHTSILQSGVPSRFSGSGSGTDFTLTISSLQPEDFATYYCQQYMFQPRTFGQGTKVEIRR
notes: VK dAb against VEGF

Activity (nM), RBA assay (recombinant human VEGF [12]): 0.913 nM
B7: DMS1546 (Fc fusion)
VL: B6 VL
modifications: disulfide-linked homodimer of this chain (bivalent dAb-Fc)
notes: dAb-Fc; also called DOM15-10 Fc fusion; not shown: TVAAPS linker and human IgG1 Fc

Kd (recombinant human VEGF [10]): 14.6 nM
EC50 (recombinant human VEGF [11]): 3.58 nM
B8: DOM15-10-11 (other)
VL: B6 VL with S34R, R96M, R108G
notes: VK dAb against VEGF, trypsin-selected variant of DOM15-10

Activity (nM), RBA assay (recombinant human VEGF [12]): 0.577 nM
B9: DMS1531 (Fc fusion)
VL: B6 VL with S34R, R96M, R108G
modifications: disulfide-linked homodimer of this chain (bivalent dAb-Fc)
notes: dAb-Fc; also called DOM15-10-11 Fc fusion; not shown: TVAAPS linker and human IgG1 Fc

IC50 (IL-1R1): 0.28 nM
B10: DOM4-130-54 (other)
VL: DIQMTQSPSSLSASVGDRVTITCRASQDIYLNLDWYQQKPGKAPKLLINFGSELQSGVPSRFSGSGYGTDFTLTISSLQPEDFATYYCQPSFYFPYTFGQGTKVEIKR
notes: VK domain antibody (dAb) against IL-1R1

IC50 (IL-1R1): 0.257 nM
B11: DOM4-130-201 (other)
VL: B10 VL with N49K, S77N, R108W
notes: VK dAb against IL-1R1, trypsin-selected variant of DOM4-130-54

IC50 (IL-1R1): 0.254 nM
B12: DOM4-130-202 (other)
VL: B10 VL with T22S, N49S, F83S, F94Y
notes: as for B11
